For this assay, the target named is human wild-type D3R (HASS-FLAG-EGFP-3C protease-D3R in pcDNA4/TO) (human) (UniProt P35462).
Chain of UniProt P35462 (P35462 whole entry): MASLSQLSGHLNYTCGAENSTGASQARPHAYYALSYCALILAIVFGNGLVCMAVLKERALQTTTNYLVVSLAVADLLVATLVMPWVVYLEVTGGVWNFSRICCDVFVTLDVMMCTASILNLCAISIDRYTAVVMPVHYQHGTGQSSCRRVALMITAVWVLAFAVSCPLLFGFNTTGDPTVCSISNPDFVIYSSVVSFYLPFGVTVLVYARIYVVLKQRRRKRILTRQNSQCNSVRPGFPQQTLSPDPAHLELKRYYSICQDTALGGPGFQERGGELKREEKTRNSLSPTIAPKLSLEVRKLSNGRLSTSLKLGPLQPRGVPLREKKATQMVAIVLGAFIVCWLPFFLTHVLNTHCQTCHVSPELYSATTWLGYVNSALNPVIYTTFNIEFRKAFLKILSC

“GαOA-RLuc8 (from UniProt P09471 1-354) (natural protein)” showed a potency of FOB02-04A at D3R in the TRUPATH BRET2 assay in HEK293T cells, GOA against Gi1 of 135 fold.

The values are drawn from PMC11377762.
